From paper PMC9831982 (Nature Communications, 2023)

Target: T1, Slh1 (from SLH1-FTP, released by TEV protease) as imaged by HS-AFM (S. cerevisiae, UniProt P53327 1-1967)
T1 construct: Slh1 (RQT2), S. cerevisiae; The methods describe this purification for the wild-type and the double-mutant trimer; not shown: protein A (behind a TEV site), C-terminal, cleaved
Assay: HS-AFM; purified complex (5 nM) on mica in RQT-AFM buffer (50 mM Tris pH 7.5, 100 mM NaCl, 10 mM MgCl2, 100 mM L-arginine, 10 µM ZnCl2), room temperature
Conditions: both partners purified

T1 sequence (P53327 whole entry): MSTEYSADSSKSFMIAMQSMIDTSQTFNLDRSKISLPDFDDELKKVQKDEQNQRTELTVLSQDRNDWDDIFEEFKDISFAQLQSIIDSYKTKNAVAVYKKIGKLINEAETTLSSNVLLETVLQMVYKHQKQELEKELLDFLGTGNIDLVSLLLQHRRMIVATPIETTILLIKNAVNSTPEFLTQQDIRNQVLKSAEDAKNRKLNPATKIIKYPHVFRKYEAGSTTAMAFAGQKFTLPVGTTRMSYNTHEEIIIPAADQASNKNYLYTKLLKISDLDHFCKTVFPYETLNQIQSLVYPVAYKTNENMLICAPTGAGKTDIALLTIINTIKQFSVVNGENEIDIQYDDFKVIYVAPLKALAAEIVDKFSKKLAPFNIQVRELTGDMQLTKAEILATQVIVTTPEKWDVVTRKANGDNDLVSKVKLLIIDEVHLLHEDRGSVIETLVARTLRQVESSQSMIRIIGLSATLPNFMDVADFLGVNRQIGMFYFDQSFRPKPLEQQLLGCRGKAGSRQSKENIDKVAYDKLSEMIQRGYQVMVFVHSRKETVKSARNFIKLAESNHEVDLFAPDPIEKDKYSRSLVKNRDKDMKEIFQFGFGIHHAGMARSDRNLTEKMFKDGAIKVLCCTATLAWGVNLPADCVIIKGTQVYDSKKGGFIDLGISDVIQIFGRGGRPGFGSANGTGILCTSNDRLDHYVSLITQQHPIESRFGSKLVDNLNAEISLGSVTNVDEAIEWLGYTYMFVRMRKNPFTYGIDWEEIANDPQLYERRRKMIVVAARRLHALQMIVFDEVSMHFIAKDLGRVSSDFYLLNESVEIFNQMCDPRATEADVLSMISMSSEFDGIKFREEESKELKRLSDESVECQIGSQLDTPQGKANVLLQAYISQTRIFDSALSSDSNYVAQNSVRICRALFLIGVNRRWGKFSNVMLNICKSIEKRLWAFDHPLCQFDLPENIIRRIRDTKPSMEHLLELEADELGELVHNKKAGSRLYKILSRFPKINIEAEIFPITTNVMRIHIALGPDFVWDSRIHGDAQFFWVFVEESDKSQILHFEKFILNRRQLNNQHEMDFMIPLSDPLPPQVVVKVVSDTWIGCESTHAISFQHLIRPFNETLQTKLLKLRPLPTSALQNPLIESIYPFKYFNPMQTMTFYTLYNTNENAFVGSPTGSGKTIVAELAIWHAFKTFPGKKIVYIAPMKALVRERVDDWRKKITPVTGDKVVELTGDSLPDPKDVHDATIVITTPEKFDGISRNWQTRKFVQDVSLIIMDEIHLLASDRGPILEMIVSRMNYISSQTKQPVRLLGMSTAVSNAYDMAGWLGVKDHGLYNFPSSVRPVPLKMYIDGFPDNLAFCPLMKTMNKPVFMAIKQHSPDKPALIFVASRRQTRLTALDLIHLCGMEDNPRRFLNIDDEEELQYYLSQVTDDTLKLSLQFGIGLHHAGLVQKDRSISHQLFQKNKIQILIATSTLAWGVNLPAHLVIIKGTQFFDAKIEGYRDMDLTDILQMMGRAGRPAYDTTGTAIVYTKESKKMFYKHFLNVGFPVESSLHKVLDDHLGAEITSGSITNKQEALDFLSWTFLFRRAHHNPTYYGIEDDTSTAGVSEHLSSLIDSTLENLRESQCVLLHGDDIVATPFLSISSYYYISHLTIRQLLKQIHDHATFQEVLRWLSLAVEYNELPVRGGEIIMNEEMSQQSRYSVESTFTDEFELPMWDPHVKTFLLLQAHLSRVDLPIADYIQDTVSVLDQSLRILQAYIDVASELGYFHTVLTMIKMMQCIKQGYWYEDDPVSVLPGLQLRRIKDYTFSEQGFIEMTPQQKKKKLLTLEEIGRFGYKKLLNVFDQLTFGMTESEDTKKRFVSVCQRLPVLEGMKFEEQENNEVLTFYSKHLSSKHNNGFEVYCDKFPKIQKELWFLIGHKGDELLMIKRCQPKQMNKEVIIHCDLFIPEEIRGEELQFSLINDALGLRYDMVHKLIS

Row | Binder | binding result
1 | Cue3 as imaged by HS-AFM in the Slh1/Cue3 complex (natural protein, S. cerevisiae, UniProt P53137 1-624, looked up, Cue3 (RQT3), S. cerevisiae) MLSRYNRVIEINGGNADISLPIVKFPPFKLRAQLIEKDPVVWLHLIETYVTYFEYLMQGANVELLDESTLDHLRLFLRTYLHEIADEEGKLLSLGINHDVSEQLYLLKGWIFSLIKKCGLLHLQIFGDSLWNLIKVYVRRNPDSIRGLIDGSLKPRINTQRVQLDKSYQVQQHLKQLIESGKFKRIDLRCVEDLLSAKSMQPNKFAENFFTANWIEILEALWAKGQGRGHKEARELIIISLFSVSADRLLKITKELGISNFETLALYPLLGTMLINEGVHKRLPDLKSKLLFLNLGGLSMDEGDHMSYPTSSGTEVNEEQLSALMELFPQFSKYQLSQTLLAYDNNIELVTNKIFEDPTIIEAFSREPAEEEVEPVSDGDNASFTEELSILDRGDSSKNKELDKKIISEGVPDELRNKTLTRALKLLYEADEDERDDTYDEADVNRSDPSKRIGLQEDEESYDTKDDSNEVRQDHNYHIVEAYLWNLLKEDPKLFERSKRGTKVRKTMKEMTSWSDEKIEGWCRMLERSPTRARLLEKKFMFKGNSKTGKTSYVHNRDSQNDGNVVKEQAKQKKSENIKKHEPQSTEQKKRQHAKNEKRKGARANHNRKKGHDKKLARAGNNAI | binds
2 | Rqt4 as imaged by HS-AFM in the Slh1/Rqt4 complex (natural protein, S. cerevisiae, UniProt P36119 1-530, looked up, Rqt4, S. cerevisiae) MTRKQAIDYAIKQVPQILPLEESDVKALCEQVLSTSSDDPEQIASKFLEFLGHEDLSFEFVMKFNELLNQNDKKEEKKTKNVHLEHTAPTSWKNESKQPTNNYINKKGDEKPKKLKDEKKSSTTRPTVQPSNQSTQSNPIKEKKEHRSKGKLQSLQEIDEAIKMLELRDSGSSKNCNCQGTRHPVFDIAPNCLHCGKVVCVIEGLNKGKCGHCHEQLISDNERTQMVEILNQEKNELNGSSSSLSNASNGANVPKKKTKTYKITSGMGKNLFAEQDKLFDFIERKRERERKRNEVLKLQEEKEESEAKERQASEHDHKAEENPELLAAQERLDRLLYFQDTSAERTKIIDNASDFDMNQEVGLWGSARERALALKKQQRNLRKWEKVEKERNGRREKYVVSMNIGSNGKVTMTEVPKDTENVIAGSDDDISDISDEEDISDLKHIHALKSEINTTKSLENLHLQSKAWDYERDKKQFDRPTYVKKNSDTAQQNRKTEEKAHDMQAYDLKSRVQVDQNADASVEQNILAVL | binds
